Data set [1] deals with T1, FOXO1 FKH L183P (UniProt Q12778 151-265, L183P). Put plainly: EMSA. In general terms: Mobility shift assays separate free from complexed probe on a gel.
Data set [2] has as its target T1, FOXO1 FKH L183P. As to the kind of experiment: EMSA. This is another data set of the same source.

Like-named read-outs stand apart in the source and are kept apart here.

T1 sequence (Q12778 151-265 L183P): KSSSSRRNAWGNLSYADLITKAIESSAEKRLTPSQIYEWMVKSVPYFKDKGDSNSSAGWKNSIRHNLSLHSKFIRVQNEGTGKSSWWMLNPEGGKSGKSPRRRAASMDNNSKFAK

B1: dsDBE2 (dsDNA)
DNA 1: TAAGCTAGTCTTGTTTACATTTTGCTAGCAAT
DNA 2: ATTGCTAGCAAAATGTAAACAAGACTAGCTTA
One may read the Kd as a measure of binding affinity in units of concentration. High values mean a looser complex, low ones a tighter complex. Turning to B1, binding with FOXO1 FKH L183P [1] was characterised by a dissociation constant (Kd) of 230 nM.

B2: dsIRE (dsDNA)
DNA 1: TAAGCTAGTGGTTTGTTTTGCTTGCTAGCAAT
DNA 2: ATTGCTAGCAAGCAAAACAAACCACTAGCTTA
B2 had a dissociation constant (Kd) with FOXO1 FKH L183P [2] of 460 ± 100 nM.

The values above are taken from paper PMC9482095.
